# Assay results: the supplement of paper PMC10065799, “High-throughput profiling of sequence recognition by tyrosine kinases and SH2 domains using bacterial peptide display” (eLife, 2023)
# Key:
# EPHB1 = EPHB1 (UniProt P54762); assay: phosphorylation enrichment, bacterial display (enrichment ratio); higher = better substrate or ligand; peptides without Tyr show the background
# FGFR1 = FGFR1 (UniProt P11362); assay: as above
# Fer (mouse) = assay: as above
# Hck = Hck (UniProt P08631); assay: as above
# Fyn = Fyn (UniProt P06241); assay: as above
# c-Src = assay: as above
# Jak2 = Jak2 (UniProt O60674); assay: as above
# FGFR3 = FGFR3 (UniProt P22607); assay: as above
# Fes = Fes (UniProt P07332); assay: as above
# AncSZ = assay: as above
# EPHB2 = EPHB2 (UniProt P29323); assay: as above
# MERTK = MERTK (UniProt Q12866); assay: as above
# c-Abl (mouse) = assay: as above
# SHP2-C SH2 = assay: SH2 binding enrichment of the phosphorylated peptide, bacterial display (enrichment ratio); higher = better substrate or ligand; peptides without Tyr show the background
# Grb2 SH2 = Grb2 SH2 (UniProt P62993); assay: as above
# c-Src SH2 = assay: as above
# 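Throughout, for SH2 binding enrichment of the phosphorylated peptide, bacterial display: peptide library displayed on the E. coli surface as eCPX fusions, selected cells deep-sequenced, score is each peptide's frequency after selection divided by its frequency in the input.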
# 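Throughout, for phosphorylation enrichment, bacterial display: 11-residue human phosphosite peptides and single-mutation variants displayed on the E. coli surface, counted by deep sequencing, each peptide's frequency after selection divided by its frequency in the unselected input library; frequency after pTyr selection over input frequency; kinase dosed for 20-30% of maximal phosphorylation in three min.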
# FGFR3, sequence (P22607 whole entry, looked up): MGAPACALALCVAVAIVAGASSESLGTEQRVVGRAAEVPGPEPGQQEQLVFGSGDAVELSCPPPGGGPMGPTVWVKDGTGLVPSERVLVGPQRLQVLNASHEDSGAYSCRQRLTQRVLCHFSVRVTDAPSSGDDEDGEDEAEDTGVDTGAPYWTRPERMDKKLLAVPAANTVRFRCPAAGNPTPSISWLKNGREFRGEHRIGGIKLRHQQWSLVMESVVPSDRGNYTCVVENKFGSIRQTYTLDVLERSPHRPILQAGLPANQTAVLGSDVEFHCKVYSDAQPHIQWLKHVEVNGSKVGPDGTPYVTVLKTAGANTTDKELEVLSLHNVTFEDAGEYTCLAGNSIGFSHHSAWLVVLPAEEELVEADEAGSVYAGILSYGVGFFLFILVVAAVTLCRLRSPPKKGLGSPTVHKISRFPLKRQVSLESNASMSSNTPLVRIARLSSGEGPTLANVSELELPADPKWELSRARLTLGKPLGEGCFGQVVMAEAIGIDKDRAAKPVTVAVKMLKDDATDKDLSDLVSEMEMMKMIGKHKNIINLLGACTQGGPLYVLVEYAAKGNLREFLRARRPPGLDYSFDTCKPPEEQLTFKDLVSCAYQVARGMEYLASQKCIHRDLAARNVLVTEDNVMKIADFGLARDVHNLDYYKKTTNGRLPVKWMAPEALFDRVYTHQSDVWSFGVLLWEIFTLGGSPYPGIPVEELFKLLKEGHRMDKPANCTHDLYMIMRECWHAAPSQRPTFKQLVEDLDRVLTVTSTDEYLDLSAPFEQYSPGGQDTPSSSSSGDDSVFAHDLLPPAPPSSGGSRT
# Grb2 SH2, sequence (P62993 whole entry, looked up): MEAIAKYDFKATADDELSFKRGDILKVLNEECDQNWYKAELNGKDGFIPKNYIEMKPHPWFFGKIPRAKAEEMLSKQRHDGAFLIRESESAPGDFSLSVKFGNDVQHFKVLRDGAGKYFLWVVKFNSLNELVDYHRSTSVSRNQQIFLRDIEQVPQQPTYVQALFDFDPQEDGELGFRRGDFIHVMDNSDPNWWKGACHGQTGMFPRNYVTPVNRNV
# Fyn, sequence (P06241 whole entry, looked up): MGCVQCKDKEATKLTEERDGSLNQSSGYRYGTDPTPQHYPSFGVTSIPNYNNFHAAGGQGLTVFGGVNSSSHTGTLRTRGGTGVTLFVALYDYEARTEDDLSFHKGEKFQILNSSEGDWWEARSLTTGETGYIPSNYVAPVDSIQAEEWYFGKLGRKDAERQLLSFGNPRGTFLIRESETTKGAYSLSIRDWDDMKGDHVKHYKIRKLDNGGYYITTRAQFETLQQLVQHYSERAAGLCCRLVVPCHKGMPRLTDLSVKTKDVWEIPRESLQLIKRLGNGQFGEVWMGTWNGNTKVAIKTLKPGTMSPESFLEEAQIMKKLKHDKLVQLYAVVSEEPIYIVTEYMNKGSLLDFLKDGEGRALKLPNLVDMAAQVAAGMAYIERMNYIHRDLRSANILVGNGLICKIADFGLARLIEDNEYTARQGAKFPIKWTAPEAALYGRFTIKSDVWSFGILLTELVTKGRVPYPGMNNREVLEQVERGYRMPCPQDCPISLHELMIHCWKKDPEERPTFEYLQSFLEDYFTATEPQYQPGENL
# Jak2, sequence (O60674 whole entry, looked up): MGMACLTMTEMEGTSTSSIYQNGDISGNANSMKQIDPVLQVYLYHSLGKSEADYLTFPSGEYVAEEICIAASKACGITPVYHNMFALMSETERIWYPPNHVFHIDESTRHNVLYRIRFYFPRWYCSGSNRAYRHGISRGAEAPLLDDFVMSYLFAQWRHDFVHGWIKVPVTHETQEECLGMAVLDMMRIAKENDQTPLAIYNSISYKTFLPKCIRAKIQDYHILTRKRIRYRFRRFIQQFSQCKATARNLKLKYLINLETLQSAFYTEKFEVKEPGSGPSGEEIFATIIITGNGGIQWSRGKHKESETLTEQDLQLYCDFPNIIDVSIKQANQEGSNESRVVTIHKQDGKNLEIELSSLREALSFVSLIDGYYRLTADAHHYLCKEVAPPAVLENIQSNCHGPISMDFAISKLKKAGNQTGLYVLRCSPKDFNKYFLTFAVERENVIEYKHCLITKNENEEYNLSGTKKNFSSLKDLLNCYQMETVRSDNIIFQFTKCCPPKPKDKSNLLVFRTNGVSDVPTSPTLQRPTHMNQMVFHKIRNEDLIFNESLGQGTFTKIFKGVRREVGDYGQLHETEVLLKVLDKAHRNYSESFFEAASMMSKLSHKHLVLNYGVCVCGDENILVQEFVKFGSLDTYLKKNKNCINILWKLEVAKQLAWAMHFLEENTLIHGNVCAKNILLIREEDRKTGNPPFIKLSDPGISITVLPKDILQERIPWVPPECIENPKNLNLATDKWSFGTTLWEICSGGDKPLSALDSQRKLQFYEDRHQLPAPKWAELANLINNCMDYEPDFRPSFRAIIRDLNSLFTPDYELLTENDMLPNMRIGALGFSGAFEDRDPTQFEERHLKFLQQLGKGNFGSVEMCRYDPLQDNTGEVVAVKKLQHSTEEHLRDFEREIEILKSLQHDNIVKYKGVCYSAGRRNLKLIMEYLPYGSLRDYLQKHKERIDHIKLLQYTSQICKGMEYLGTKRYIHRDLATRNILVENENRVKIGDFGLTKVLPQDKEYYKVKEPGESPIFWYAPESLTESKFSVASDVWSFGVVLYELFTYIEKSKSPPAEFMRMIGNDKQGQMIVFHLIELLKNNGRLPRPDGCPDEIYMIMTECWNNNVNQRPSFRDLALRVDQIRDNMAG
# MERTK, sequence (Q12866 whole entry, looked up): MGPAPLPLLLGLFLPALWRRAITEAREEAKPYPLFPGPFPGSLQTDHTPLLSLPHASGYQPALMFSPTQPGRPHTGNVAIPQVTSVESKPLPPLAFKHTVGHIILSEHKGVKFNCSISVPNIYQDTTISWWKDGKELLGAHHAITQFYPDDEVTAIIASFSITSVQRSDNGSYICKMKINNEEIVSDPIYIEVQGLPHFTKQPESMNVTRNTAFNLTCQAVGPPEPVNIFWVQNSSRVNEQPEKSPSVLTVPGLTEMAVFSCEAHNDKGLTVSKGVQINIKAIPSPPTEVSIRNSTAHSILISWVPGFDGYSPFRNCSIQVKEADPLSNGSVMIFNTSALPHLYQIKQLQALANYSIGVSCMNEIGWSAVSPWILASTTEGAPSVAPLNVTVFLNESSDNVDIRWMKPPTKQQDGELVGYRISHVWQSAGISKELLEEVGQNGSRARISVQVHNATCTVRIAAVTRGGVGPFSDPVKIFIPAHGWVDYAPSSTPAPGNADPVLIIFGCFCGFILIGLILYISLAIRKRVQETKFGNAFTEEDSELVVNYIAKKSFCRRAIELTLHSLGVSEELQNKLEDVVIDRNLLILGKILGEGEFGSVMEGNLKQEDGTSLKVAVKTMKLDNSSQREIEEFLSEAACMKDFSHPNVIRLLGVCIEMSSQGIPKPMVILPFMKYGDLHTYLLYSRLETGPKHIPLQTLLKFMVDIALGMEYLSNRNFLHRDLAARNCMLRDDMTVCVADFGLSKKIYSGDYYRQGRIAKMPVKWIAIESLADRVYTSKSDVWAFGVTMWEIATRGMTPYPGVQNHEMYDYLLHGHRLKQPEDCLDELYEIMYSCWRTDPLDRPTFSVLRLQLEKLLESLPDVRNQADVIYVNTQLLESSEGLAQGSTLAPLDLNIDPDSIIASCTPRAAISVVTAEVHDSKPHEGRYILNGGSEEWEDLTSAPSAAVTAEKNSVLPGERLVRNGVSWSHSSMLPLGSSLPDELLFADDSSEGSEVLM
# Hck, sequence (P08631 whole entry, looked up): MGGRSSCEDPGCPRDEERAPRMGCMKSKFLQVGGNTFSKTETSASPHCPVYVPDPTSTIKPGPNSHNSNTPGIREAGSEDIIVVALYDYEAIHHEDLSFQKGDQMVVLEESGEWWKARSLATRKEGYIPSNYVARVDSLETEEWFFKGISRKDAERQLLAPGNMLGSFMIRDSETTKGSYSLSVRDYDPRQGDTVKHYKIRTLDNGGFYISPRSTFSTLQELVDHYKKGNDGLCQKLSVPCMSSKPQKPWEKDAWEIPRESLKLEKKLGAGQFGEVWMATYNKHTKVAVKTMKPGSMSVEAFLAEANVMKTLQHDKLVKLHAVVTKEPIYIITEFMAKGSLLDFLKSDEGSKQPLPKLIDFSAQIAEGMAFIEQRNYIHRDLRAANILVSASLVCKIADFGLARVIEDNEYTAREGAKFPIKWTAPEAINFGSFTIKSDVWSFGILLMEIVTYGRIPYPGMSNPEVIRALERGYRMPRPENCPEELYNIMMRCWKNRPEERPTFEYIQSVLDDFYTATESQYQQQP
# FGFR1, sequence (P11362 whole entry, looked up): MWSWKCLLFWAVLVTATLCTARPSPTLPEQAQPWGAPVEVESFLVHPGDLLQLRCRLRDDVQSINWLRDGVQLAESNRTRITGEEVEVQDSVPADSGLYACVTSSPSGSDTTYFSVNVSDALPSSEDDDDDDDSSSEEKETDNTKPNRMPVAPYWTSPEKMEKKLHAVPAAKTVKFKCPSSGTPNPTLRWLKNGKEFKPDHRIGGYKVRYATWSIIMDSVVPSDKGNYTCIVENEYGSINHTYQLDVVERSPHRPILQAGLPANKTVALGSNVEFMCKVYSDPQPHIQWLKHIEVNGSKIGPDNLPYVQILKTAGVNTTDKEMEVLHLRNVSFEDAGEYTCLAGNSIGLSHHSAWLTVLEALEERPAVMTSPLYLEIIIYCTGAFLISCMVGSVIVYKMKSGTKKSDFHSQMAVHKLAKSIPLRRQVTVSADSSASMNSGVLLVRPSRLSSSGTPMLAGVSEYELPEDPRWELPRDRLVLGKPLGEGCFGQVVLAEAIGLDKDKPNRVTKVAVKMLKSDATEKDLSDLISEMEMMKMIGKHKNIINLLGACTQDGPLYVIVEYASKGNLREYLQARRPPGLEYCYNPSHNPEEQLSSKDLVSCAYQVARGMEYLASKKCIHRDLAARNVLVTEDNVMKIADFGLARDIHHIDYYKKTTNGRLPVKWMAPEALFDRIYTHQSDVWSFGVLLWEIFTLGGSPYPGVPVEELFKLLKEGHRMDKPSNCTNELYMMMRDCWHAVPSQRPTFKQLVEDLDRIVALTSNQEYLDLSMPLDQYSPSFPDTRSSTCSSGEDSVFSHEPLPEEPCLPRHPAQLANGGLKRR
Sequence,phosphorylation enrichment (EPHB1),phosphorylation enrichment (FGFR1),phosphorylation enrichment (Fer (mouse)),phosphorylation enrichment (Hck),phosphorylation enrichment (Fyn),phosphorylation enrichment (c-Src),phosphorylation enrichment (Jak2),phosphorylation enrichment (FGFR3),phosphorylation enrichment (Fes),phosphorylation enrichment (AncSZ),phosphorylation enrichment (EPHB2),phosphorylation enrichment (MERTK),phosphorylation enrichment (c-Abl (mouse)),SH2 binding enrichment (SHP2-C SH2),SH2 binding enrichment (Grb2 SH2),SH2 binding enrichment (c-Src SH2)
LNEVGYDDIGG [VCP_Y203],1.4,1.07,0.861,1.36,1.15,0.812,1.9,1.72,2.47,1.42,1.04,0.827,1.09,1.04,0.974,12.2
LPEENYQVLCF [ARHGAP1_Y365_R369C],9.13,8.04,7.5,4.43,1.64,5.73,5.17,5.59,3.56,3.61,5.96,3.58,3.14,0.49,0.739,0.82
LPKEQYLCTKE [AFG3L2_Y614_Y616C],0.463,0.482,0.562,0.409,0.466,0.427,0.868,0.653,1.01,0.858,0.428,0.409,0.723,0.533,0.883,0.584
LQFKNYQQLFD [MAN2A1_Y442],0.641,0.453,0.391,0.527,0.379,0.377,0.882,0.679,0.985,0.944,0.532,0.358,0.636,0.784,0.76,1.58
LQLLGHRPVFS [CHST6_Y358_Y358H_YF],0.847,0.657,0.817,0.957,0.786,0.579,1.03,0.785,1.33,0.901,0.783,0.602,0.919,0.923,0.912,0.544
LQRCKYSHMEP [TEX45_Y434],0.513,0.663,0.582,0.672,0.375,0.982,1.5,0.957,1.35,1.21,0.876,0.614,1.16,1.1,0.64,0.78
LRAGVYREKDQ [DNM2_Y626_P627R],0.392,0.335,0.349,0.449,0.35,0.448,0.38,0.524,0.636,0.882,0.295,0.398,0.514,0.478,0.646,0.427
LRSELYFLIAR [PHIP_Y16],1.54,3.06,0.916,1.93,0.769,1.5,3.62,3.17,1.71,2.02,1.4,7.59,1.63,1.03,1.44,1.05
LRSELYSLIAR [PHIP_Y16_F17S],5.23,0.693,4.78,7.53,1.63,2.26,0.54,0.811,1.11,0.919,1.36,11,0.566,1.05,1.15,1.89
LRVHSYKSMQP [DRC7_Y516],0.526,0.479,0.565,0.684,0.567,0.55,0.476,0.671,0.769,0.797,0.515,0.423,0.785,0.957,1.25,0.607
LSAPEYGPKLK [TBC1D14_Y46],0.539,0.58,0.458,0.537,0.451,0.412,0.409,0.565,0.514,0.592,0.425,0.383,0.456,0.665,1.02,0.5
LSFSEYASVQV [SIRPA_Y496_P491L],7.83,2.22,5.53,2.93,3.8,2.14,1.1,2.1,1.64,2.44,8.7,0.671,4.03,0.783,0.934,0.671
LTDLRYKVSGL,0.379,0.496,0.404,0.377,0.352,0.46,0.575,0.437,0.725,0.581,0.479,0.427,0.565,0.498,0.761,0.397
LTELGYSFVTT [ACTA1_Y200_R198L],1.44,5.04,2.05,1.9,1.88,1.11,1.93,3.42,3.61,3.14,1.46,1.12,1.51,3.2,0.797,8.8
LTGIAYSLPHW [SLC22A14_Y291],0.969,0.658,0.877,1.08,0.921,0.764,0.997,0.956,1.68,1.61,0.94,3.24,1.41,5.82,0.847,4.06
LTNDRYLATLT [IL6ST_Y396],0.625,0.676,0.568,0.463,0.746,0.533,0.97,0.586,1.07,0.761,0.709,0.597,1.58,0.722,1.04,0.541
LTTEAYEWEPC [ELMOD3_Y61_R66C],3.5,2.04,2.88,1.88,1.58,5.66,6.69,3.7,6.22,5.1,2.44,1.57,4.16,0.959,1.02,1.37
